Experimental data reported in US20170073406A1.

What was measured:
[1] = target: biotinylated His-tagged TGF-β1 LAP C4S (Homo sapiens (Human)) (UniProt P01137); assay: ELISA, neutravidin plate with biotinylated His-tagged TGF-β1 LAP C4S; antibody dilution 1:1,000; fluorescent secondary detection
[2] = target: biotinylated His-tagged TGF-β1 LAP C4S (Homo sapiens (Human)) (UniProt P01137); assay: ELISA, neutravidin plate with biotinylated His-tagged TGF-β1 LAP C4S; antibody dilution 1:5,000; fluorescent secondary detection
[3] = target: biotinylated His-tagged TGF-β1 LAP C4S (Homo sapiens (Human)) (UniProt P01137); assay: ELISA, neutravidin plate with biotinylated His-tagged TGF-β1 LAP C4S; antibody dilution 1:10,000; fluorescent secondary detection
[4] = target: TGF-β1 LAP complexed with sGARP (Homo sapiens (Human)) (UniProt Q14392); assay: ELISA with increasing concentrations of MAB246
[5] = target: LTBP1-proTGFβ1 (protein complex of the ELISA of Example 35) (UniProt Q14766); assay: ELISA with increasing concentrations of MAB246
[6] = target: proTGF-β1 complexed with sGARP (Homo sapiens (Human)) (UniProt Q14392); assay: ELISA with increasing concentrations of MAB246
[7] = target: human GARP-proTGF-β1 (membrane-bound GARP with proTGF-β1, on transfected cells) (human) (UniProt Q14392); assay: flow cytometry on 300.19 cells stably expressing the complex; MFI minus control 300.19 cells; one-site binding fit
[8] = target: human GARP-TGF-β1 LAP (membrane-bound GARP with TGF-β1 LAP, on 300.19 cells) (human) (UniProt Q14392); assay: as above
[9] = target: human GARP-proTGF-β1 (membrane-bound GARP with proTGF-β1, on transfected cells) (human) (UniProt Q14392); assay: cell-based or functional assay
[10] = target: human LTBP1 plus proTGF-β1, expressed by transiently transfected SW480 or HEK293 cells (human) (UniProt Q14766); assay: cell-based or functional assay
Sequence of human LTBP1 plus proTGF-β1, expressed by transiently transfected SW480 or HEK293 cells (human) (Q14766 347-1721 limits assumed, chain 1 of 2): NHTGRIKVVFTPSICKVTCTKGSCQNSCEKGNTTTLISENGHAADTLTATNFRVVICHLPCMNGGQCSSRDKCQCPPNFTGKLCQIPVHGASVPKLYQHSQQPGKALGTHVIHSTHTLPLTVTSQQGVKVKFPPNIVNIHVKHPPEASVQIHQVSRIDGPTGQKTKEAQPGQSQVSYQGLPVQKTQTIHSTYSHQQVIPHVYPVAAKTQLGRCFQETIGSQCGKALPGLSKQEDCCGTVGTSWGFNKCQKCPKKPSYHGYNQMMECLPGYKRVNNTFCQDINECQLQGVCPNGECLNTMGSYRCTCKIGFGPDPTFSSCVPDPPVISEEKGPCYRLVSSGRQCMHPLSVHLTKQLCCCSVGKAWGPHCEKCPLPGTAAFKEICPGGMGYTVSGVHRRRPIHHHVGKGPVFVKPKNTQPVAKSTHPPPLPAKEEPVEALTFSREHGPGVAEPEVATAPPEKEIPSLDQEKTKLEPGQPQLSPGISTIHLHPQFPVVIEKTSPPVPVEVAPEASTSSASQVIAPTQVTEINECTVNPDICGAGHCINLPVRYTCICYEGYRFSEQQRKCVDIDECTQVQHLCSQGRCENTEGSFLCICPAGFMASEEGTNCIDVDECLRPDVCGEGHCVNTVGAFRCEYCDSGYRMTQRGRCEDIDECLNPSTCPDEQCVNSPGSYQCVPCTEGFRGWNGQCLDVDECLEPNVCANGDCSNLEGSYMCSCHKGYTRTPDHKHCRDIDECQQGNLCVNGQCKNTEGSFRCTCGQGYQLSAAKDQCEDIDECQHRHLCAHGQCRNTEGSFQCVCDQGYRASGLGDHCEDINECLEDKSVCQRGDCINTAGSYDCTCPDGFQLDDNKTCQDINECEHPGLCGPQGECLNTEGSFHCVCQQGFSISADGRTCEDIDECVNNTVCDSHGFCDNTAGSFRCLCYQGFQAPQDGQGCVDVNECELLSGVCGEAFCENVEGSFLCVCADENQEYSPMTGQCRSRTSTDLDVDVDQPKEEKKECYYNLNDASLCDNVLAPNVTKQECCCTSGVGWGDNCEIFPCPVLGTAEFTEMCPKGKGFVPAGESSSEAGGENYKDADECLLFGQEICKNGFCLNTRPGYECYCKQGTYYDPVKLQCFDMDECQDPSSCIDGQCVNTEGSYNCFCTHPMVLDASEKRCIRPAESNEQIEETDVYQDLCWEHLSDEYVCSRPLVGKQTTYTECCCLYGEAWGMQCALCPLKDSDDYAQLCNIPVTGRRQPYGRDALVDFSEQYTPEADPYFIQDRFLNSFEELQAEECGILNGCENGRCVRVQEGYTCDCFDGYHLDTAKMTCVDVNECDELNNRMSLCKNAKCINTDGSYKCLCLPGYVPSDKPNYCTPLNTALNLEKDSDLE
Sequence of human LTBP1 plus proTGF-β1, expressed by transiently transfected SW480 or HEK293 cells (human) (chain, as listed by the source limits assumed, chain 2 of 2): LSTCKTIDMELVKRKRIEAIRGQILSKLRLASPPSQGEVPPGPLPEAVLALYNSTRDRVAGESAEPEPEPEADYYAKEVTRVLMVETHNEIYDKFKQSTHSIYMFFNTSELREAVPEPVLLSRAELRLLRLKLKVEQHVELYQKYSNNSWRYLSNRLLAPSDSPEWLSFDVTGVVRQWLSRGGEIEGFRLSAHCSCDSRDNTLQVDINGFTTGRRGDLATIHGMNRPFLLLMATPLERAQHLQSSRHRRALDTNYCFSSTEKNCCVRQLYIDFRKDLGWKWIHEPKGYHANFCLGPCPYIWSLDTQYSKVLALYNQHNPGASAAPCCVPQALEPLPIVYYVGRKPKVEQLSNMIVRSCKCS

Sequence of biotinylated His-tagged TGF-β1 LAP C4S (Homo sapiens (Human)) (P01137 other isoform, or with tags, fused parts or gaps limits assumed): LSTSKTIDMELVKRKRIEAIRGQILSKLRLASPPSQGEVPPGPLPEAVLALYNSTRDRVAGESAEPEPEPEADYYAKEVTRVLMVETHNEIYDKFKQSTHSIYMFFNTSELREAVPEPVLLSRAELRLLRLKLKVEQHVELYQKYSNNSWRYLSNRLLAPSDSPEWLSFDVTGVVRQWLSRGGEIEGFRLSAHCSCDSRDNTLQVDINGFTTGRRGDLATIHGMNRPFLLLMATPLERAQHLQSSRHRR
Sequence of human GARP-proTGF-β1 (membrane-bound GARP with proTGF-β1, on transfected cells) (human) (Q14392 20-662 limits assumed, chain 1 of 2): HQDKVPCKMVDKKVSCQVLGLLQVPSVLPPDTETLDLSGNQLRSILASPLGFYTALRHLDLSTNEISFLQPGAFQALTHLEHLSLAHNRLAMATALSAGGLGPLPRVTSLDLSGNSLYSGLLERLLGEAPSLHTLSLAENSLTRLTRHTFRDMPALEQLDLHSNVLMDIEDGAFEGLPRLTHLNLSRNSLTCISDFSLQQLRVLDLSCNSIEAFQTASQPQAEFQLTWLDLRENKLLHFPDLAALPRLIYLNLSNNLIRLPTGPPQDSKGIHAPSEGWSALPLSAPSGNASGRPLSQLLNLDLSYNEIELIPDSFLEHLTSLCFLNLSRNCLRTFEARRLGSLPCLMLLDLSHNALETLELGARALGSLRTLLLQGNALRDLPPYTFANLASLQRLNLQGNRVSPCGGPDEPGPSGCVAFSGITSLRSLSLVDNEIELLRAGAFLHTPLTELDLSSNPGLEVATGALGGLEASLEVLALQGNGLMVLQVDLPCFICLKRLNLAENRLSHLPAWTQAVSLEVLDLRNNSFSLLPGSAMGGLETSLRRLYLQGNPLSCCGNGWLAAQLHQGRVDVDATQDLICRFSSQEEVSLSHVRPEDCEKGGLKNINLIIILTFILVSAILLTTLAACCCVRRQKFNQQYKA
Sequence of human GARP-TGF-β1 LAP (membrane-bound GARP with TGF-β1 LAP, on 300.19 cells) (human) (Q14392 20-662 limits assumed, chain 1 of 2): as above
Sequence of human GARP-TGF-β1 LAP (membrane-bound GARP with TGF-β1 LAP, on 300.19 cells) (human) (chain, as listed by the source limits assumed, chain 2 of 2): as the sequence (P01137 other isoform, or with tags, fused parts or gaps limits assumed) above, with S4C counted along it
Sequence of LTBP1-proTGFβ1 (protein complex of the ELISA of Example 35) (Q14766 347-1721 limits assumed, chain 1 of 2): as the sequence (Q14766 347-1721 limits assumed, chain 1 of 2) above
Sequence of TGF-β1 LAP complexed with sGARP (Homo sapiens (Human)) (Q14392 18-627 limits assumed, chain 1 of 2): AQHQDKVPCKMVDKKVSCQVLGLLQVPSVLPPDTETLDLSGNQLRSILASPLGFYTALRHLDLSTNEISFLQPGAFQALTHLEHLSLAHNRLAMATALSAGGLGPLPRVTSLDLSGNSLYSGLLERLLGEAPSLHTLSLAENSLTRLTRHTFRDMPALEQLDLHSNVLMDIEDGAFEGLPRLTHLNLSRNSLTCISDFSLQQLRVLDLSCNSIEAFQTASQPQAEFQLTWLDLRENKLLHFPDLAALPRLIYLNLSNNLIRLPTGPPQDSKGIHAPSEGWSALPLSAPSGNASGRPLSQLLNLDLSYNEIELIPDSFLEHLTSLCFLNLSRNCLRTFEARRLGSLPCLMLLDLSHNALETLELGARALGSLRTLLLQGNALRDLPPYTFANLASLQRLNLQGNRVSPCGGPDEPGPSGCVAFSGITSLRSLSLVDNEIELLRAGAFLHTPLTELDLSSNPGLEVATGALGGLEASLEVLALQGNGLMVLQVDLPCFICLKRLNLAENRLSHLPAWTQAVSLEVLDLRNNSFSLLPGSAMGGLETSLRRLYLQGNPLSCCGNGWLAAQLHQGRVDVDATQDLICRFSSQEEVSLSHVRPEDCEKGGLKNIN
Sequence of TGF-β1 LAP complexed with sGARP (Homo sapiens (Human)) (chain, as listed by the source limits assumed, chain 2 of 2): as the sequence (P01137 other isoform, or with tags, fused parts or gaps limits assumed) above, with S4C counted along it
Sequence of proTGF-β1 complexed with sGARP (Homo sapiens (Human)) (Q14392 18-627 limits assumed, chain 1 of 2): as the sequence (Q14392 18-627 limits assumed, chain 1 of 2) above

RFU [1] [RFU] | RFU [2] [RFU] | RFU [3] [RFU] | Kd [4] [nM] | Kd [5] [nM] | Kd [6] [nM] | Kd [7] [µg/mL] | Kd [8] [µg/mL] | reporter activity (TMLC luciferase, RLU), 20 or 50 µg/ml MAB246 [9] [fold] | RLUs (TMLC luciferase), with αvβ6-expressing cells and 20 or 50 µg/ml MAB246 [10] [fold] | reporter activity (TMLC luciferase, RLU), 20 µg/ml MAB246 [10] [fold] | reporter activity (TMLC luciferase, RLU), 50 µg/ml MAB246 [10] [fold] | RLUs (TMLC luciferase), no antibody [10] [fold] | Substance
14600 | 4540 | 3310 | – | – | – | – | – | – | – | – | – | – | 9016.2 (mouse monoclonal anti-TGF-β LAP antibody, Abcam, Cambridge, UK)
26800 | 24900 | 18800 | 0.14 | 0.24 | 0.91 | 35.1 | 0.08 | < 2 | 3.5 | 2 | > 2.5 | – | MAB246 (R&D Systems, Minneapolis, Minn.), mouse IgG1 anti-TGF-β1 LAP antibody, clone 27235
57500 | 42100 | 32000 | – | – | – | 0.19 | 0.11 | – | – | – | – | – | MAB2463 (R&D Systems, Minneapolis, Minn.), mouse IgG1 anti-TGF-β1 LAP antibody, clone 27232
– | – | – | – | – | – | – | – | – | – | – | – | 2.5 | αvβ6 integrin (on cells, e.g. SW480-β6 cells) (from UniProt P06756 31-1048; P18564 22-788) (receptor)
